Laboratory results reported in paper PMC2978097 (2010).

Molecular target: α-synuclein (Homo sapiens, UniProt P37840)
Assay: fluorescence anisotropy

Kd: ~1 µM
B1: Y39W β-syn 36D (peptide)
chain: GVLWVGSKTR
